A word on the stoichiometry N: it is a count of units in the complex or per binding partner.

From article PMC2042504 come the findings set out here.

The target of assay [1] is 35S-labeled Vpu TM domain, in vitro translated (gel permeation) (HIV-1, isolate not stated (NL4-3 and R5 cloned)). The assay is described as follows: SEC; gel permeation of 35S-labeled in vitro translation mixture on Sephacryl S200HR in PBS, calibrated with lysozyme and BSA; pentamer and monomer peaks. Background: In gel filtration, larger molecules generally elute earlier.

The target of assay [2] is 35S-labeled full-length Vpu protein, in vitro translated (gel permeation) (HIV-1, isolate not stated (NL4-3 and R5 cloned)). The assay is described as above.
Assay [3] addresses Vpu fused to ECFP or to EYFP (HIV-1, isolate not stated (NL4-3 and R5 cloned)). As to the kind of experiment: FRET or BRET; acceptor photobleaching FRET of ECFP-Vpu and EYFP-Vpu in live COS-1 cells with low expression, punctate and vesicular distribution. On the technique in general: In BRET a luciferase serves as donor, and the signal depends on an acceptor being close.
For assay [4] the target is unchanged. As to the kind of experiment: FRET or BRET; acceptor photobleaching FRET of ECFP-Vpu and EYFP-Vpu in live U2-OS cells, regions that appeared to be Golgi or unidentified vesicles.

Consider “35S-labeled Vpu TM domain, in vitro translated (gel permeation) (domain or fragment)”, for which, in assay [1], the percent of the radioactivity in the oligomer peak amounted to 10% and the stoichiometry N was found to be 5.
Turning to “35S-labeled full-length Vpu protein, in vitro translated (gel permeation) (natural protein)”, in assay [2], the percent of the radioactivity in the oligomer peak was 10% and the stoichiometry N stood at 5.
For the substance “Vpu fused to ECFP or to EYFP (natural protein)”, the figures for the FRET efficiency in assay [3] and in assay [4] were 18.5% and 26%, respectively.
